Measured values published in patent publication US20210052718A1.

Tests used:
[1] = biological target: FI-RSV (post F): formalin-inactivated whole RSV (respiratory syncytial virus) (UniProt P03420); experiment: ELISA on coated virus preparation; grade +++ = OD 1-1.5
[2] = biological target: Live RSV (A2 strain) (respiratory syncytial virus A2 strain) (UniProt P03420); experiment: ELISA on coated virus; grade +++ = OD 1-1.5
[3] = biological target: Split RSV37° C. (standard preparation of inactivated split RSV vaccine) (respiratory syncytial virus) (UniProt P03420); experiment: ELISA on coated virus preparation; grade +++++ = OD 2-2.5
[4] = biological target: Split RSV4° C. (inactivated at low temperature (4° C.) and split) (respiratory syncytial virus) (UniProt P03420); experiment: ELISA on coated virus preparation; grade ++++++ = OD >2.5
Sequence of Split RSV4° C. (inactivated at low temperature (4° C.) and split) (respiratory syncytial virus) (P03420 26-574): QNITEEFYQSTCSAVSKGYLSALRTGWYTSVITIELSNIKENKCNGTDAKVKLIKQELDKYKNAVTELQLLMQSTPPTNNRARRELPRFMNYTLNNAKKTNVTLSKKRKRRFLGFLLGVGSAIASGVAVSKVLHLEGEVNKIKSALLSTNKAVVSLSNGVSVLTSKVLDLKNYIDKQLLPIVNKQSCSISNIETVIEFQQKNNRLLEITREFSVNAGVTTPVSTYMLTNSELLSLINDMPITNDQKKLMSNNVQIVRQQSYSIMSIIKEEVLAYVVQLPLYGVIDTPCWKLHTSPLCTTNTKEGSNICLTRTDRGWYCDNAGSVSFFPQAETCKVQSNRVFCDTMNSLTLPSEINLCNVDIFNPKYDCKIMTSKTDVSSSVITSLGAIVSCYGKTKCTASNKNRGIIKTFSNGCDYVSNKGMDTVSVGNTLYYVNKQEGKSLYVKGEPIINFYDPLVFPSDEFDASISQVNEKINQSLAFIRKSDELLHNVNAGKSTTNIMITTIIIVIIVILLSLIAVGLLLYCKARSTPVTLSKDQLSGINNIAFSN

Sequence of Live RSV (A2 strain) (respiratory syncytial virus A2 strain) (P03420 26-574): as above
Sequence of UniProt P03420 (P03420 26-574): as above
Sequence of Split RSV37° C. (standard preparation of inactivated split RSV vaccine) (respiratory syncytial virus) (P03420 26-574): as above

palivizumab (antibody)
ELISA OD [1]: 1 to 1.5 od
ELISA OD [2]: 1 to 1.5 od
ELISA OD [3]: 2 to 2.5 od
ELISA OD [4]: > 2.5 od
